Assay: soluble on expression in E. coli; label from the status in PepcDB or PDB records

Sequence | soluble on expression in E. coli
GSHMPAPHGGILQDLIARDALKKNELLSEAQSSDILVWNLTPRQLCDIELILNGGFSPLTGFLNENDYSSVVTDSRLADGTLWTIPITLDVDEAFANQIKPDTRIALFQDDEIPIAILTVQDVYKPNKTIEAEKVFRGDPEHPAISYLFNVAGDYYVGGSLEAIQLPQHYDYPGLRKTPAQLRLEFQSRQWDRVVAFQTRNPMHRAHRELTVRAAREANAKVLIHPVVGLTKPGDIDHHTRVRVYQEIIKRYPNGIAFLSLLPLAMRMSGDREAVWHAIIRKNYGASHFIVGRDHAGPGKNSKGVDFYGPYDAQELVESYKHELDIEVVPFRMVTYLPDEDRYAPIDQIDTTKTRTLNISGTELRRRLRVGGEIPEWFSYPEVVKILRESNPPRPKQGFSIVLGNSLTVSREQLSIALLSTFLQFGGGRYYKIFEHNNKTELLSLIQDFIGSGSGLIIPNQWEDDKDSVVGKQNVYLLDTSSSADIQLESADEPISHIVQKVVLFLEDNGFFVF | soluble
MPMTLDLQPGQRLARGVARHLRAHGFVSVEEFVPARGLRVDVMGLGPKGEIWVIECKSSRADFQADAKWQGYLEWCDRYFWAVDMEFPAELLPAESGLLIADAYDAEIVRMAPEQKLAPARRKVLIQKFATHAARRLQALRDPEGHG | not soluble
MRRLNRFKAPDEKVNTLFQVYKTISFWKVVKNTVVVEFGRFFPWMGGKRNIYRACLGMKIGKKTAIAYKVMPDLFFPEKITIGENSIIGYHTTILTHEYLLSEYHVGEVVIGKNVMVGANVTILPGIEIGDGAIVAAGAVVSKDVPPESFAYGNPLVIKEKAALEHHHHHH | soluble
MPFVPVAALKDYVGKDLGHSEWLTIDQERVDQFAECTGDHQFIHVDPEKAAKTPFGGTIAHGFLSLSLIPKLMEGLLVLPEGLKMAVNYGLDTVRFIQPVRVGSRVRLGLTLLDVNEKNPGQWLIKARATLEIEGQEKPAYIAETLSLCFV | not soluble
GQLQEPYETVTIDVEEQHQGPIMEKMGVRKAELTDMAPDGTGRIRMDFIMPSRGLIGFQTEFMTLTSGSGLIYHTFFEYGPHKGGEIGQRKNGVMIGNATGKALTNAIFNLQSRGRMLIGHGVDIYEG | not soluble
MSLGTLKLFNIGNMVTYSMNESSMISSKGMEILISDGKIIEIGPKVGDADQLFDCENKLVTPGFVDCHTHPVFLDGRENEFEMRLKGFSYEEIANEGGGIKNSVKSVRNSSEVELYNRVISRMDKFLKLGTTTIEAKSGYGLDINSELKSLKVIHEVNLAHQIDILPTFMGAHAVPNEYADDIDSYVDLICDSMIPQVAEQGIAIFNDVFCEKGYFNLKQSERILKKGLDYGLLPRIHSDEFNNLGASKLAGKLNLISADHLMKIEKDDIEIMADSNTKAVLLPGTTFFLGHSNYAPYHKLKEAGIEVAIASDYNPEGHHHHHH | soluble
MLPCRANCFTLEISLMHINIAWQDVDTVLLDMDGTLLDLAFDNYFWQKLVPETWGAKNGVTPQEAMEYMRQQYHDVQHTLNWYCLDYWSEQLGLDICAMTTEMGPRAVLREDTIPFLEALKASGKQRILLTNAHPHNLAVKLEHTGLDAHLDLLLSTHTFGYPKEDQRLWHAVAEATGLKAERTLFIDDSEAILDAAAQFGIRYCLGVTNPDSGIAEKQYQRHPSLNDYRRLIPSLM | not soluble
MKPQWQQYIQIINQVVKPALGCTEPIAAAYAAAVARTLLNDDPDSIAVQVSDNLYKNSMGVYVPGTGKIGLAIAAAAGALAGNADAGLEVLASVTPEQVAQAQALIDAAKVKVERTETDEFIYCCVTLTSGEQEAMVKICGGHTLIAEKRLNGELVFTADNAQAKATGSICDGVDINIESIYRFAEEVPFEEIQFILKASELNSKLSDEGMSKPYGLEVGRTMKNGIAAGIIGEDLLNKIVMLTAAASDARMGGANLPAMSNLGSGNQGIAATIPVVITAQCYKVSEEKLARALIMSHLGAIYIKSHYPPLSAFCGNTVTSAAASMAMVYLAGGSFEQSCFAIQNVISDSSGMVCDGAKASCAMKVSTSSSAAVRSFLMALSSQNVSGQGIIANHVEKTIKNIGKMVLNGMSSTDVTIINIMSE | not soluble
MSLGGELSLQIINKNPYKLYMDIKGFGFKTVDSIALSMGIEPDSNFRTKAAILYCLEQKEQNGDTYAFIEDIHQQVEKLLNIKINDIKNYLDKEYYYFDVLRLAKRTTWETEKDISVRLKEKINNSQKLFTNNVIHLIPEIERILRIKYDDKQKELFYKINENNILVLTGFAGTGKSSVLNGLLNLFDKKNITYKLMSPTAKAAKRMEECTGKKASTIHRALGLAEGKFLVNEKNPFAEDVIIIDETSMVDIYLFLAVLKGIKNTTKLLCLGDYGQLESISAGNVLFDMIQGGIPCVKLEKIFRQKEDSSLLNVITNIRNGDNPLKNTHKTYLELGRDCKFWLGKKEQTLSRVLLCYKECLKHFSREDIMVLCPMKKGNSGVNKLNQELQKIANSQNTEELKLKDCAYKKEDLVMHIKNDYNANIFSEDCKDTIAKGIFNGDAGKIEKIDLENQKLYVSYDSGIVEYDNSNLNELMLSYALTIHKVQGSQSKVVIVALDMSHYKMLKRSLLYTAASRCVELLIFICDPKAFSIALNNNQVTHKNTFLGELLKISEGHHHHHH | soluble
MSLKIIILGAGQVGGTLAENLAGENNDITIVDTDSDRLRELQDKFDLRVVNGHGAHPKVLREAGAQDADMLVAVTNSDETNMVACQVAYSLFNTPNKVARIRSPAYLVERDRLFLPESVPVDHLIAPEQLVTDYVRRLIEYPGALQVVDFAGGKVGLVAVKAYYGGPLVGNALSTLRDHMPNIETRVAAIFRQGRSIRPQGTTIIEADDEVFFVAAAGHIRAVMSELQRLESPYRRIMIVGGGNIGAGLARQLEKRYSVKLIERNQKRAEQLSEVLENTIVFCGDAADQELLAEEHIDQIDVFIAVTNEDEANIMSALLAKKMGAKKTMVLIQRSAYVDLVQGGSIDIAISPQQATISALLTHVRRADIANVYSLRRGAAEAIEAIAHGDENTSKVVGKTVGELKLPPGTTIGAIVRGDEVLIAHDRTQIQQDDHVVMFLVDKKYIPEVERLFQPSPFFLEGHHHHHH | soluble
MDRMDKAAKINIINANVRNAQTGDYYYNPYKIVNKTFTDTDGKQVTLKIGITGVLPTQILVWDKANLEGKVTVDDPMEAVKTIVPQMKAAGADFILVAAHSGIGDNEYTKNEENEGYQIAGIEGVDAVATGHSHADFPNGDGTSFYAKYPGVDDVNGLINGKPVVMAGKFGDHLGIMDVKLTYTDGKWKVVNSKAKLEKIDTKSDIADKALIDMAAHDHDGTILTMFVRKLVRPL | not soluble
MSLHDVRVYHVQQPMRVGFGHPAATRTTSESVVLELDISGCVGLGECAPRSYVTGETCVTVCDALRSLPLARIIDELLSESPNDVLYRIKRLGIEAAFDFTAANNVVCIVELAILDWIGKRTRVSLDAMLRNGASLAESSAPIKISQVLDQNLTVDDFLRERGPFHFVKIKAHRDRAKDLETVTEIRRAIGDDTPIVIDANMSWSLIEAVEHVRKLREAGLTMVEEPFSKRSWTELHELRVQTGISIMLDESVSTLDDLRRAIGSDSCDAVNVRVSKCGGVLRSIEMIELAKSFGIQFQIGVQVAECGPLIQAGRLLASLHRDAIAVEGGQADRFFDSMIVSPDLSFDRARSTVPPPAGFGLGLSTSTEISKYLAFGYSRSADEWTATSHYTEAEGHHHHHH | soluble
MSEKDQSVNNTEEDFNVETEDNQNDTNIENSVSNTDNSEANASDSENNSEESIKDEESESQDTKIKELEKLANDNEEKYLRLYAEFENYKRRIQKENQINATYKAQGVLTDILPSIDNIERALQIEGDDESFKSLQKGVQMVHESLLRALKDNGLEEILAEGKEFDPNLHQAVVQDDNPDFKSGEVTQELQKGYKLKDRVLRPSMVKVNQ | soluble
SAEGDYYTLGNRQRIPRDPFREQSLASRFMDDDFGLPPFPNELSMDWPGWARPRLSHRLDAPWTGSLRSGFPRASMSSPQGFSSVYTESPRRASAPPTDSDEPWKVCVNVHSFKPEELNVKTKDGFVEVSGKHEEKQDEGGIVTKNFTKKIQIPLDVDPVTVFASLSPEGVLIIEARQTPPYYLYSNEMPAESMEEPEARPQEPSMTSTTTFEARE | soluble
MPSKQDVLLLDYWDQWAEAYRINGKSINTVYRYKLFRKHLKSRFDGRKLNSIRPIEWQKFINDFAAGKDRKEKTTRKRPRERSKDIVTKMNSYVRGMVKAAINERILFSDFTFGTKTSGVRLEHHHHHH | not soluble
GMTFEPYPFERLRALLKEITPKKRGLDLGIGEPQFETPKFIQDALKNHTHSLNIYPKSAFEESLRAAQRGFFKRRFKIELKENELISTLGSREVLFNFPSFVLFDYQNPTIAYPNPFYQIYEGAAKFIKAKSLLMPLTKENDFTPSLNEKELQEVDLVILNSPNNPTGRTLSLEELISWVKLALKHDFILINDECYSEIYENTPPPSLLEACMLAGNEAFKNVLVIHSLSKRSSAPGLRSGFIAGDSRLLEKYKAFRAYLGYTSANAIQKASEAAWLDDRHAEFFRNIYANNLKLARKIFKNTLIYPYSFYVYLPVQNGENFAKTLYQNEGIITLPALYLGRNRIGADYVRLALVYDTPLLEKPLEIIETYRENHA | soluble
MAHHHHHHMQNLSPACTFNKNEEKIKCPSSTKLGCSDGTKIIQHEINERNMMPEIPNVSLTDENDFTFNKKRHVSSIPKNNNEYWVYPSSQQFYNSLIRKNKDIDKNYIDAVVSVHNEVNEESWKQILKYEHMHKRSCTDVTLHRFLGKFDDLSIKARFRSIFSRGKKKKNNNNNKKSVKGFFFMGRPFDRHDWYVNRCGTQVKYILDYYNDESINDDKNIYIDVRPAMNSFSNVWDRLRYPFYEFYFKYVKKDELFK | not soluble
MISSSLPSSNAASSSEGRITQAKDVQGFSQRSASGQTPLNQSAALSEQAVPSFRLAAQTFSSEERKEATTATTEENAAVDTTGMNVLLSATTPTETPDLAAQAQTLTQGMLNMAEKSVASFNKVNPLEIKGEAKTTSPAQANALLNTSPQQQDIQTSQTTSANARVNTSAVDFQALLNQPAQGQATTAPLNVQTSAPSAQAVSAATVAHAHTQGSEWAAVKVDTSAGKWGEQMMQVLHDRVTLQAQQSVQEAKIRLDPPDLGKLDLLVRVEGDRLSVQINANTAATREALMQVSERLRTELQEQNFVHVDVNVGADQGQERHQQQMNDEDTTIFAARESSAFQSNTTTNYSEHWLNTQA | not soluble
MPERYTGSDGKTYLFKGWYKGNAKPSTLETTKTPSYAVTYDDNDDLHVVYEEAVMKTYTLPAREALFGYVDEQGNLINPAKFKLSATMGESDGATGEMTTFPTIDGIDMPASQLKKLAIPQKVYTRPDDGTIVTYGPQEVSVEIPKYYQTISISPTTAYTGDKTKYPVPNEVRRGIENPDNIVSSLVGTTAYNLTQKSATRYTARRSYWTWGPTKTLYSMSIYSGTAGGNYNLSTPDGTIYYYLENRRVTEHFVDESGAKITPPTGFTQGNQLVVDSENYVYTVAKALPKIYQAGEKTYIFQGWFKGKTKPATLKTTTTPSFTPTFNDEDDMTAVYQEAIPTAELTLTGAVDIIENGATMDYWEALLKNTGEAPLTTIKIKPTATWAAGIGAPNTIFVQGTGQNTKAFPVTKEQWTTGAGVSITLDQPLPAGGQLKMNLLGTAVTGNPGQVLTADVEVTGNFGSLTAKDTVRIKDLDQEITSPDGDGFISTPTFDFGKLAISGSKQQYGLKKAADYYGNGTRNPYLRLNTSQANWSLTAQLSQPKSATDSLPTTTRLLLGTAAAASFTDYNQPTETRTPLGKTSTVTLTADNTATAVVANQQFTGSDVYQLDFTFANIKLEVPANQGMAGQQYQAAVTWNLVTGP | not soluble
MSLQAPMALVPVRTIYPGEAISPEQVKSVEVTNPNISAGYASDISEVEGMISKQTLLPGRTIPIAALREPSLVVRGTSVKLVFHIGNMTLMASGTPMSDGSLGEVVRVRNIDSGVMVSGTVMKDGTIQVMAKEGHHHHHH | soluble
